From patent publication CN113307874A (GUANGZHOU EXCELMAB BIOMEDICAL TECH CO LTD, dated 2021)
Substitutions are numbered along the chain they refer to.

T1: 人LAG3抗原 (ACRO, Cat.LA3-H5222) (human, UniProt P18627 23-450)
T1 construct: Bought protein; also called human LAG3 antigen
T1 sequence (looked up): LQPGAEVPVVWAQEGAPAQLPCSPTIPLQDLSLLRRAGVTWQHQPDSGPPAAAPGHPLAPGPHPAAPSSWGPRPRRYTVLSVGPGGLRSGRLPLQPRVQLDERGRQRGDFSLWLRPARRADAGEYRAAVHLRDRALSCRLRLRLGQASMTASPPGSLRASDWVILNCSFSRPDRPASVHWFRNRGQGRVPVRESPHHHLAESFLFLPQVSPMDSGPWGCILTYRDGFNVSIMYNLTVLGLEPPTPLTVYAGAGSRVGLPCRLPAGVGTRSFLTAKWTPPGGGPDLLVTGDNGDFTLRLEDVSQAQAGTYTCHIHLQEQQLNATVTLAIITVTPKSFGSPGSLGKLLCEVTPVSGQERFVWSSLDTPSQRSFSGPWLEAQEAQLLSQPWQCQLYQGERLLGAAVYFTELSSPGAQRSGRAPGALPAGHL

T2: 过表达人LAG3抗原的Jurkat/LAG3细胞表面的人LAG3 (human, UniProt P18627 23-525)
T2 construct: whole, on cells; also called 过表达人LAG3的Jurkat细胞
T2 sequence (looked up): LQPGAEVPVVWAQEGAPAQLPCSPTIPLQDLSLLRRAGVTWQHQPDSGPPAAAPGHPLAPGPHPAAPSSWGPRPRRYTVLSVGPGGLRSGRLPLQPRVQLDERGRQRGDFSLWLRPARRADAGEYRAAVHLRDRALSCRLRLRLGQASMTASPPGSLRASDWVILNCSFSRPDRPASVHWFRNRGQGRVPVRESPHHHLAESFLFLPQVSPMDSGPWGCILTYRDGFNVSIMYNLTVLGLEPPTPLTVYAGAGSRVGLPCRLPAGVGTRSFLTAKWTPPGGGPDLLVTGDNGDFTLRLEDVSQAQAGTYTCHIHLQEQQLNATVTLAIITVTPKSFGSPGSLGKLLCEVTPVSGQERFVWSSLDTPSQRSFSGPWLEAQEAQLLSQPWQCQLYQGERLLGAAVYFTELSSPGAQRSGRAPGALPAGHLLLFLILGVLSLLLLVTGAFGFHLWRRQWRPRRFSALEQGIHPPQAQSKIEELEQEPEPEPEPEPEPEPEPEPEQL

B1: 人源化抗体 hmL42 (antibody, V domains shown)
VH: QVQLVQSGAEVKKPGASVKVSCKASGYTFTDYEVHWVKQAPGQGLEWMGAIHPGSGGAAYNQKVKGKVTMTADTSISTAYMELSRLRSDDTAVYYCTSYGWNDWGQGTTVTVS
VL: DIQLTQSPSFLSASVGDRVTITCKASQDVSTAVAWYQQKPGKSPKLLISWASTRHTGVPDRFAGSGSGTDFTLTISSLQPEDFATYYCQQYSSYPYTFGQGTKLEIK
B2: 鼠源抗LAG3抗体 mL42 (antibody, V domains shown)
VH: EVQLQQSGAELVRPGASVKLSCKALGYTFTDYEVHWLKQTPVRGLEWIGAIHPGSGGAAYNQKVKGKATLTADKSSSTAYMELSVLTSEDSAVYYCTSYGWNDWGQGTTLTVSS
VL: DILMNQSHKFMSTSVGDRVSIACKASQDVSTAVAWYQQKPGQSPKLLISWASTRHTGVPDRFAGSGSGTDFTLTINNVQSEDLADYFCQQYSSYPYTFGGGTKLELER
notes: detected with anti-human IgG secondary antibodies
B3: hmL42人源化亲和力成熟变体 R2 (antibody, V domains shown)
VH: B1 VH
VL: B1 VL with Q89M, Q90G, S92L, S93F, Y94F
B4: hmL42人源化亲和力成熟变体 R3B5 (antibody, V domains shown)
VH: B1 VH
VL: B1 VL with S92V, S93R, Y94F, P95S
B5: hmL42人源化亲和力成熟变体 R2A8 (antibody, V domains shown)
VH: B1 VH
VL: B1 VL with Q89M, Q90G, S92W, S93V, Y94F
B6: hmL42人源化亲和力成熟变体 R2D12 (antibody, V domains shown)
VH: B1 VH
VL: B1 VL with S92M, Y94F, P95A, Y96F
B7: hmL42人源化亲和力成熟变体 R3H9 (antibody, V domains shown)
VH: B1 VH
VL: B1 VL with S92V, S93D, Y94F
B8: hmL42人源化亲和力成熟变体 R2C9 (antibody, V domains shown)
VH: B1 VH
VL: B1 VL with Q89M, Q90S, S92V, S93V, Y94F
B9: hmL42人源化亲和力成熟变体 R2G10 (antibody, V domains shown)
VH: B1 VH
VL: B1 VL with S92W, S93E, Y94F, P95S, Y96F
B10: hmL42人源化亲和力成熟变体 R3B6 (antibody, V domains shown)
VH: B1 VH
VL: B1 VL with S92L, Y94F, Y96F, T97M
B11: hmL42人源化亲和力成熟变体 R3G5 (antibody, V domains shown)
VH: B1 VH
VL: B1 VL with S92V, S93M, Y94F, Y96F
B12: hmL42人源化亲和力成熟变体 R3G6 (antibody, V domains shown)
VH: B1 VH
VL: B1 VL with S92V, S93D, Y94F, Y96F, T97K
B13: hmL42人源化亲和力成熟变体 R3D4 (antibody, V domains shown)
VH: B1 VH
VL: B1 VL with S92N, S93V, Y94F, P95A, Y96F
B14: hmL42人源化亲和力成熟变体 R3C4 (antibody, V domains shown)
VH: B1 VH
VL: B1 VL with S92V, S93A, Y94F, P95S, Y96F
B15: hmL42人源化亲和力成熟变体 R2E8 (antibody, V domains shown)
VH: B1 VH
VL: B1 VL with Q89H, S92I, S93M, Y94F
B16: hmL42人源化亲和力成熟变体 R3H5 (antibody, V domains shown)
VH: B1 VH
VL: B1 VL with S92W, S93V, Y94F, P95S, Y96F
B17: hmL42人源化亲和力成熟变体 R2B11 (antibody, V domains shown)
VH: B1 VH
VL: B1 VL with S92V, S93V, Y94F, P95S, T97S
B18: hmL42人源化亲和力成熟变体 R3G4 (antibody, V domains shown)
VH: B1 VH
VL: B1 VL with S92I, S93D, Y94F, Y96F, T97V
B19: hmL42人源化亲和力成熟变体 R3C5 (antibody, V domains shown)
VH: B1 VH
VL: B1 VL with S92W, S93V, Y94W, P95D, T97V
B20: hmL42人源化亲和力成熟变体 R2H11 (antibody, V domains shown)
VH: B1 VH
VL: B1 VL with S92Y, Y94W, P95S

Target: T1, 人LAG3抗原 (ACRO, Cat.LA3-H5222)
Assay: indirect ELISA, coated human LAG3

Binder	binding result
B1	binds
B2	binds

Target: T1, 人LAG3抗原 (ACRO, Cat.LA3-H5222)
Assay: indirect ELISA, coated human LAG3
Remark: another data set of the same source

Binder	EC50 [µg/mL]
B3	0.202
B4	0.184
B5	0.132
B6	0.119
B7	0.183
B8	0.221
B9	0.16
B10	0.216
B11	0.138
B12	0.206
B13	0.112
B14	0.248
B15	0.204
B16	0.147
B17	0.244
B18	0.175
B19	0.437
B20	0.382

Target: T2, 过表达人LAG3抗原的Jurkat/LAG3细胞表面的人LAG3
Assay: indirect flow cytometry on Jurkat/LAG3 cells

Binder	binding result
B1	binds
B2	binds
